Laboratory results reported in publication PMC4658334, “Reassessment of MxiH subunit orientation and fold within native Shigella T3SS needles using surface labelling and solid-state NMR” (Journal of Structural Biology, 2015).
Residue numbers refer to the chain shown, from its start.

B1: MxiH L32C (natural protein)
chain: MSVTVPNDDWTLSSLSETFDDGTQTLQGELTCALDKLAKNPSNPQLLAEYQSKLSEYTLYRNAQSNTVKVIKDVDAAIIQNFR
notes: MxiH, needle subunit of the T3SS, Shigella flexneri, with leucine 32 changed to cysteine; cloned into pACT3 via NdeI and HindIII; Printed mass of the unlabelled subunit is 9123.5 Da; source: S. flexneri, expressed from pACT3 with 200 μM IPTG; needles purified
B2: MxiH V68C (natural protein)
chain: B1 chain with C32L, V68C
notes: MxiH, needle subunit of the T3SS, Shigella flexneri, with valine 68 changed to cysteine; gene synthesized and cloned into pACT3 via NdeI and HindIII; Printed mass of the unlabelled subunit is 9137.5 Da; source: S. flexneri, expressed from pACT3 with 200 μM IPTG; needles purified
B3: MxiH, needle subunit of the Shigella flexneri type III secretion system (wild type, serotype 5) (natural protein)
chain: B1 chain with C32L
modifications: uniformly 13C,15N labelled
notes: MxiH, needle subunit of the T3SS, Shigella flexneri serotype 5; expressed from pACT3mxiH; arranged as a helical polymer (needle); Helical polymer; also called WT MxiH; native MxiH needles; source: S. flexneri ΔmxiH (pACT3mxiH), 200 μM IPTG, M9-type minimal medium; in vivo assembled needles shaved from the bacterial surface and purified

Tests used:
[1] = biological target: the molecule itself; assay: negative-stain electron microscopy of purified needles; purified needle preparations, about 0.1 μg/ml, on carbon-coated grids, stained with 1% phosphotungstic acid pH 7; self-association of the subunit into the needle polymer
[2] = biological target: the molecule itself; assay: solid-state NMR; 5-7 mg of uniformly 13C,15N labelled natively grown needles packed in a 1.9 mm rotor; 20.0 T, 18 kHz MAS; self-association of the subunit into the needle polymer

Protein	binding result [1]	binding result [2]
B1	binds	
B2	binds	
B3		binds
